Tests used:
Assay in all cases: co-IP (IP: Strep, western blot bands quantified with ImageJ)
[1] = target: CD163 receptor, HA-tagged (pCAGGS-CD163-HA) (UniProt Q2VL90); details: plasmids cotransfected into HEK-293T cells, read off a plot
[2] = target: GP4 of PRRSV HuN4-F112, Strep-tagged (pCAGGS-GP4-Strep); details: plasmids cotransfected into HEK-293T cells; parent: est. 0.86; read off a plot
[3] = target: GP2a of PRRSV HuN4-F112, Strep-tagged (pCAGGS-GP2a-Strep); details: chain shown with the change; plasmids cotransfected into HEK-293T cells; parent: est. 2.9; read off a plot

Molecule: GP2a of PRRSV HuN4-F112, Strep-tagged (pCAGGS-GP2a-Strep) V118I
- response (relative ratio of CD163/GP2) ([1]; parent: est. 0.18): 0.67

Molecule: GP2a of PRRSV HuN4-F112, Strep-tagged (pCAGGS-GP2a-Strep) V118del
- response (relative ratio of CD163/GP2) ([1]; parent: est. 0.61): 0.23

Molecule: CD163 receptor, HA-tagged (pCAGGS-CD163-HA) (from UniProt Q2VL90) R561A
- response (relative ratio of CD163/GP4) [2]: 0.64

Molecule: GP4 of PRRSV HuN4-F112, Strep-tagged (pCAGGS-GP4-Strep) N43del
- response (relative ratio of CD163/GP4) ([1]; parent: est. 1.2): 0.57

Molecule: CD163 receptor, HA-tagged (pCAGGS-CD163-HA) (from UniProt Q2VL90) R561del
- response (relative ratio of CD163/GP4) [2]: 0.27

Molecule: GP4 of PRRSV HuN4-F112, Strep-tagged (pCAGGS-GP4-Strep) N43D
- response (relative ratio of CD163/GP4) ([1]; parent: est. 0.74): 1.4

B1: CD163 receptor, HA-tagged (pCAGGS-CD163-HA), Q2VL90 R561del (protein)
chain: KDKELRLTGGENKCSGRVEVKVQEEWGTVCNNGWDMDVVSVVCRQLGCPTAIKATGWANFSAGSGRIWMDHVSCRGNESALWDCKHDGWGKHNCTHQQDAGVTCSDGSDLEMGLVNGGNRCLGRIEVKFQGRWGTVCDDNFNINHASVVCKQLECGSAVSFSGSANFGEGSGPIWFDDLVCNGNESALWNCKHEGWGKHNCDHAEDAGVICLNGADLKLRVVDGVTECSGRLEVKFQGEWGTICDDGWDSDDAAVACKQLGCPTAVTAIGRVNASEGTGHIWLDSVSCHGHESALWQCRHHEWGKHYCNHDEDAGVTCSDGSDLELRLKGGGSHCAGTVEVEIQKLVGKVCDRSWGLKEADVVCRQLGCGSALKTSYQVYSKTKATNTWLFVSSCNGNETSLWDCKNWQWGGLSCDHYDEAKITCSAHRKPRLVGGDIPCSGRVEVQHGDTWGTVCDSDFSLEAASVLCRELQCGTVVSLLGGAHFGEGSGQIWAEEFQCEGHESHLSLCPVAPPDGTCSHSRDVGVVCSRYTQIRLVNGKTPCEGRVELNILGSWGSLCNSHWDMEDAHVLCQQLKCGVALSIPGGAPFGKGSEQVWRHMFHCTGTEKHMGDCSVTALGASLCSSGQVASVICSGNQSQTLSPCNSSSSDPSSSIISEENGVACIGSGQLRLVDGGGRCAGRVEVYHEGSWGTICDDSWDLNDAHVVCKQLSCGWAINATGSAHFGEGTGPIWLDEINCNGKESHIWQCHSHGWGRHNCRHKEDAGVICSEFMSLRLISENSRETCAGRLEVFYNGAWGSVGRNSMSPATVGVVCRQLGCADRGDISPASSDKTVSRHMWVDNVQCPKGPDTLWQCPSSPWKKRLASPSEETWITCANKIRLQEGNTNCSGRVEIWYGGSWGTVCDDSWDLEDAQVVCRQLGCGSALEAGKEAAFGQGTGPIWLNEVKCKGNETSLWDCPARSWGHSDCGHKEDAAVTCSEIAKSRESLHATGRSSFVALAIFGVILLACLIAFLIWTQKRRQRQRLSVFSGGENSVHQIQYREMNSCLKADETDMLNPSGDHSEVQ
- response (relative ratio of CD163/GP2) [3]: 1.8

B2: CD163 receptor, HA-tagged (pCAGGS-CD163-HA), Q2VL90 R561A (protein)
chain: KDKELRLTGGENKCSGRVEVKVQEEWGTVCNNGWDMDVVSVVCRQLGCPTAIKATGWANFSAGSGRIWMDHVSCRGNESALWDCKHDGWGKHNCTHQQDAGVTCSDGSDLEMGLVNGGNRCLGRIEVKFQGRWGTVCDDNFNINHASVVCKQLECGSAVSFSGSANFGEGSGPIWFDDLVCNGNESALWNCKHEGWGKHNCDHAEDAGVICLNGADLKLRVVDGVTECSGRLEVKFQGEWGTICDDGWDSDDAAVACKQLGCPTAVTAIGRVNASEGTGHIWLDSVSCHGHESALWQCRHHEWGKHYCNHDEDAGVTCSDGSDLELRLKGGGSHCAGTVEVEIQKLVGKVCDRSWGLKEADVVCRQLGCGSALKTSYQVYSKTKATNTWLFVSSCNGNETSLWDCKNWQWGGLSCDHYDEAKITCSAHRKPRLVGGDIPCSGRVEVQHGDTWGTVCDSDFSLEAASVLCRELQCGTVVSLLGGAHFGEGSGQIWAEEFQCEGHESHLSLCPVAPAPDGTCSHSRDVGVVCSRYTQIRLVNGKTPCEGRVELNILGSWGSLCNSHWDMEDAHVLCQQLKCGVALSIPGGAPFGKGSEQVWRHMFHCTGTEKHMGDCSVTALGASLCSSGQVASVICSGNQSQTLSPCNSSSSDPSSSIISEENGVACIGSGQLRLVDGGGRCAGRVEVYHEGSWGTICDDSWDLNDAHVVCKQLSCGWAINATGSAHFGEGTGPIWLDEINCNGKESHIWQCHSHGWGRHNCRHKEDAGVICSEFMSLRLISENSRETCAGRLEVFYNGAWGSVGRNSMSPATVGVVCRQLGCADRGDISPASSDKTVSRHMWVDNVQCPKGPDTLWQCPSSPWKKRLASPSEETWITCANKIRLQEGNTNCSGRVEIWYGGSWGTVCDDSWDLEDAQVVCRQLGCGSALEAGKEAAFGQGTGPIWLNEVKCKGNETSLWDCPARSWGHSDCGHKEDAAVTCSEIAKSRESLHATGRSSFVALAIFGVILLACLIAFLIWTQKRRQRQRLSVFSGGENSVHQIQYREMNSCLKADETDMLNPSGDHSEVQ
- response (relative ratio of CD163/GP2) [3]: 1.8

Source: PMC12456131
